Assay results published in the supplement of paper PMC10567573.

B1: PTPLAD1 (parent)
chain: YINFRHLYKQRRRRYGQKKKKIH
B2: CDC25A (parent)
chain: KKFRTKSRTWAGEKSKREMYSRLK
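Note: lentivirally expressed fusions sorted by FACS into six bins by GFP to DsRed ratio, PSI derived from sequencing read proportions per bin multiplied by bin number.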

Variants of: B1
Assay: protein stability index of a GFP-peptide fusion (GPS, HEK-293T) (PSI 1-6); higher = more stable
Conditions: c terminus: native
With YINFRHLYKQRRRRYGQIKKKIH [K18I] the protein stability index was 2.86.
With YINFRHLYKQRRRRYGQLKKKIH [K18L] the protein stability index was 2.42.
Variant YINFRHLYKQRRRRYGQMKKKIH [K18M] has a protein stability index of 1.78.
YINFRHLYKQRRRRYGQNKKKIH [K18N] showed a protein stability index of 1.96.
In the case of YINFRHLYKQRRRRYGQPKKKIH [K18P], the protein stability index is reported as 1.52.
For YINFRHLYKQRRRRYGQQKKKIH [K18Q], the protein stability index was 1.56.
In the case of YINFRHLYKQRRRRYGQRKKKIH [K18R], the protein stability index is reported as 1.97.
With YINFRHLYKQRRRRYGQSKKKIH [K18S] the protein stability index was 1.65.
YINFRHLYKQRRRRYGQTKKKIH [K18T] gave a protein stability index of 2.19.
Variant YINFRHLYKQRRRRYGQVKKKIH [K18V] has a protein stability index of 2.29.
In the case of YINFRHLYKQRRRRYGQWKKKIH [K18W], the protein stability index is reported as 2.22.
Variant YINFRHLYKQRRRRYGQYKKKIH [K18Y] has a protein stability index of 2.39.
For YINFRHLYKQRRRRYGQKAKKIH [K19A], the protein stability index was 2.04.
For YINFRHLYKQRRRRYGQKDKKIH [K19D], the protein stability index was 2.66.
With YINFRHLYKQRRRRYGQKEKKIH [K19E] the protein stability index was 1.57.
For YINFRHLYKQRRRRYGQKFKKIH [K19F], the protein stability index was 2.25.
Work on YINFRHLYKQRRRRYGQKGKKIH [K19G] yielded a protein stability index of 2.15.
Variant YINFRHLYKQRRRRYGQKHKKIH [K19H] has a protein stability index of 2.49.
For YINFRHLYKQRRRRYGQKIKKIH [K19I], the protein stability index was 2.54.
YINFRHLYKQRRRRYGQKLKKIH [K19L] gave a protein stability index of 3.09.
With YINFRHLYKQRRRRYGQKMKKIH [K19M] the protein stability index was 2.31.
With YINFRHLYKQRRRRYGQKNKKIH [K19N] the protein stability index was 1.62.
In the case of YINFRHLYKQRRRRYGQKPKKIH [K19P], the protein stability index is reported as 1.95.
In the case of YINFRHLYKQRRRRYGQKQKKIH [K19Q], the protein stability index is reported as 2.09.
With YINFRHLYKQRRRRYGQKRKKIH [K19R] the protein stability index was 1.91.
With YINFRHLYKQRRRRYGQKSKKIH [K19S] the protein stability index was 2.07.
Variant YINFRHLYKQRRRRYGQKTKKIH [K19T] has a protein stability index of 1.96.
In the case of YINFRHLYKQRRRRYGQKWKKIH [K19W], the protein stability index is reported as 2.02.
In the case of YINFRHLYKQRRRRYGQKYKKIH [K19Y], the protein stability index is reported as 2.12.
Work on YINFRHLYKQRRRRYGQKKAKIH [K20A] yielded a protein stability index of 2.05.
In the case of YINFRHLYKQRRRRYGQKKCKIH [K20C], the protein stability index is reported as 1.83.
YINFRHLYKQRRRRYGQKKDKIH [K20D] showed a protein stability index of 3.01.
Variant YINFRHLYKQRRRRYGQKKEKIH [K20E] has a protein stability index of 1.66.
YINFRHLYKQRRRRYGQKKFKIH [K20F] showed a protein stability index of 1.71.
Work on YINFRHLYKQRRRRYGQKKGKIH [K20G] yielded a protein stability index of 2.77.
In the case of YINFRHLYKQRRRRYGQKKHKIH [K20H], the protein stability index is reported as 2.35.
YINFRHLYKQRRRRYGQKKIKIH [K20I] gave a protein stability index of 2.92.
YINFRHLYKQRRRRYGQKKMKIH [K20M] showed a protein stability index of 1.88.
YINFRHLYKQRRRRYGQKKNKIH [K20N] gave a protein stability index of 1.89.
Work on YINFRHLYKQRRRRYGQKKPKIH [K20P] yielded a protein stability index of 2.
With YINFRHLYKQRRRRYGQKKQKIH [K20Q] the protein stability index was 1.46.
Work on YINFRHLYKQRRRRYGQKKRKIH [K20R] yielded a protein stability index of 1.82.
Variant YINFRHLYKQRRRRYGQKKSKIH [K20S] has a protein stability index of 1.69.
In the case of YINFRHLYKQRRRRYGQKKTKIH [K20T], the protein stability index is reported as 1.99.
YINFRHLYKQRRRRYGQKKWKIH [K20W] showed a protein stability index of 1.91.
Work on YINFRHLYKQRRRRYGQKKYKIH [K20Y] yielded a protein stability index of 3.24.
For YINFRHLYKQRRRRYGQKKKCIH [K21C], the protein stability index was 2.5.
In the case of YINFRHLYKQRRRRYGQKKKDIH [K21D], the protein stability index is reported as 1.33.
In the case of YINFRHLYKQRRRRYGQKKKFIH [K21F], the protein stability index is reported as 2.76.
Work on YINFRHLYKQRRRRYGQKKKGIH [K21G] yielded a protein stability index of 2.96.
YINFRHLYKQRRRRYGQKKKHIH [K21H] showed a protein stability index of 1.94.
YINFRHLYKQRRRRYGQKKKIIH [K21I] gave a protein stability index of 2.14.
Work on YINFRHLYKQRRRRYGQKKKLIH [K21L] yielded a protein stability index of 1.92.
With YINFRHLYKQRRRRYGQKKKMIH [K21M] the protein stability index was 2.3.
In the case of YINFRHLYKQRRRRYGQKKKNIH [K21N], the protein stability index is reported as 2.27.
YINFRHLYKQRRRRYGQKKKPIH [K21P] gave a protein stability index of 1.99.
YINFRHLYKQRRRRYGQKKKQIH [K21Q] showed a protein stability index of 1.39.
Variant YINFRHLYKQRRRRYGQKKKRIH [K21R] has a protein stability index of 2.49.
In the case of YINFRHLYKQRRRRYGQKKKSIH [K21S], the protein stability index is reported as 2.33.
Variant YINFRHLYKQRRRRYGQKKKTIH [K21T] has a protein stability index of 2.7.
For YINFRHLYKQRRRRYGQKKKVIH [K21V], the protein stability index was 1.6.
With YINFRHLYKQRRRRYGQKKKWIH [K21W] the protein stability index was 2.37.
With YINFRHLYKQRRRRYGQKKKYIH [K21Y] the protein stability index was 1.35.
In the case of YINFRHLYKQRRRRYGQKKKKAH [I22A], the protein stability index is reported as 2.02.
YINFRHLYKQRRRRYGQKKKKCH [I22C] gave a protein stability index of 1.86.
YINFRHLYKQRRRRYGQKKKKDH [I22D] gave a protein stability index of 2.56.
YINFRHLYKQRRRRYGQKKKKEH [I22E] gave a protein stability index of 2.66.
In the case of YINFRHLYKQRRRRYGQKKKKFH [I22F], the protein stability index is reported as 1.72.
In the case of YINFRHLYKQRRRRYGQKKKKGH [I22G], the protein stability index is reported as 1.5.
Work on YINFRHLYKQRRRRYGQKKKKHH [I22H] yielded a protein stability index of 2.13.
With YINFRHLYKQRRRRYGQKKKKLH [I22L] the protein stability index was 2.67.
Variant YINFRHLYKQRRRRYGQKKKKMH [I22M] has a protein stability index of 2.23.
Work on YINFRHLYKQRRRRYGQKKKKNH [I22N] yielded a protein stability index of 1.9.
With YINFRHLYKQRRRRYGQKKKKPH [I22P] the protein stability index was 1.86.
For YINFRHLYKQRRRRYGQKKKKQH [I22Q], the protein stability index was 2.44.
Work on YINFRHLYKQRRRRYGQKKKKRH [I22R] yielded a protein stability index of 1.81.
YINFRHLYKQRRRRYGQKKKKSH [I22S] gave a protein stability index of 2.33.
With YINFRHLYKQRRRRYGQKKKKTH [I22T] the protein stability index was 2.1.
YINFRHLYKQRRRRYGQKKKKVH [I22V] gave a protein stability index of 1.41.
Work on YINFRHLYKQRRRRYGQKKKKWH [I22W] yielded a protein stability index of 2.22.
In the case of YINFRHLYKQRRRRYGQKKKKYH [I22Y], the protein stability index is reported as 2.08.
In the case of YINFRHLYKQRRRRYGQKKKKIC [H23C], the protein stability index is reported as 1.05.
With YINFRHLYKQRRRRYGQKKKKID [H23D] the protein stability index was 2.09.
With YINFRHLYKQRRRRYGQKKKKIE [H23E] the protein stability index was 1.04.
With YINFRHLYKQRRRRYGQKKKKIF [H23F] the protein stability index was 1.11.
YINFRHLYKQRRRRYGQKKKKIK [H23K] showed a protein stability index of 1.58.
Variant YINFRHLYKQRRRRYGQKKKKIP [H23P] has a protein stability index of 2.07.
With YINFRHLYKQRRRRYGQKKKKIS [H23S] the protein stability index was 1.48.
Work on YINFRHLYKQRRRRYGQKKKKIT [H23T] yielded a protein stability index of 3.73.
Work on YINFRHLYKQRRRRYGQKKKKIV [H23V] yielded a protein stability index of 2.58.
Work on YINFRHLYKQRRRRYGQKKKKIW [H23W] yielded a protein stability index of 2.25.

Variants of: B2
Assay: as above
Conditions: c terminus: a fixed tail appended
AKFRTKSRTWAGEKSKREMYSRLK [K1A] showed a protein stability index of 3.59.
DKFRTKSRTWAGEKSKREMYSRLK [K1D] showed a protein stability index of 3.83.
Variant EKFRTKSRTWAGEKSKREMYSRLK [K1E] has a protein stability index of 3.74.
With FKFRTKSRTWAGEKSKREMYSRLK [K1F] the protein stability index was 2.37.
For IKFRTKSRTWAGEKSKREMYSRLK [K1I], the protein stability index was 1.89.
LKFRTKSRTWAGEKSKREMYSRLK [K1L] showed a protein stability index of 1.95.
